Source: US20140364363A1

Target: insulin receptor, endogenous in 3T3-L1 preadipocytes (UniProt P15208)
Assay: cell-based or functional assay

Sequence of UniProt P15208 (P15208 28-1372 limits assumed): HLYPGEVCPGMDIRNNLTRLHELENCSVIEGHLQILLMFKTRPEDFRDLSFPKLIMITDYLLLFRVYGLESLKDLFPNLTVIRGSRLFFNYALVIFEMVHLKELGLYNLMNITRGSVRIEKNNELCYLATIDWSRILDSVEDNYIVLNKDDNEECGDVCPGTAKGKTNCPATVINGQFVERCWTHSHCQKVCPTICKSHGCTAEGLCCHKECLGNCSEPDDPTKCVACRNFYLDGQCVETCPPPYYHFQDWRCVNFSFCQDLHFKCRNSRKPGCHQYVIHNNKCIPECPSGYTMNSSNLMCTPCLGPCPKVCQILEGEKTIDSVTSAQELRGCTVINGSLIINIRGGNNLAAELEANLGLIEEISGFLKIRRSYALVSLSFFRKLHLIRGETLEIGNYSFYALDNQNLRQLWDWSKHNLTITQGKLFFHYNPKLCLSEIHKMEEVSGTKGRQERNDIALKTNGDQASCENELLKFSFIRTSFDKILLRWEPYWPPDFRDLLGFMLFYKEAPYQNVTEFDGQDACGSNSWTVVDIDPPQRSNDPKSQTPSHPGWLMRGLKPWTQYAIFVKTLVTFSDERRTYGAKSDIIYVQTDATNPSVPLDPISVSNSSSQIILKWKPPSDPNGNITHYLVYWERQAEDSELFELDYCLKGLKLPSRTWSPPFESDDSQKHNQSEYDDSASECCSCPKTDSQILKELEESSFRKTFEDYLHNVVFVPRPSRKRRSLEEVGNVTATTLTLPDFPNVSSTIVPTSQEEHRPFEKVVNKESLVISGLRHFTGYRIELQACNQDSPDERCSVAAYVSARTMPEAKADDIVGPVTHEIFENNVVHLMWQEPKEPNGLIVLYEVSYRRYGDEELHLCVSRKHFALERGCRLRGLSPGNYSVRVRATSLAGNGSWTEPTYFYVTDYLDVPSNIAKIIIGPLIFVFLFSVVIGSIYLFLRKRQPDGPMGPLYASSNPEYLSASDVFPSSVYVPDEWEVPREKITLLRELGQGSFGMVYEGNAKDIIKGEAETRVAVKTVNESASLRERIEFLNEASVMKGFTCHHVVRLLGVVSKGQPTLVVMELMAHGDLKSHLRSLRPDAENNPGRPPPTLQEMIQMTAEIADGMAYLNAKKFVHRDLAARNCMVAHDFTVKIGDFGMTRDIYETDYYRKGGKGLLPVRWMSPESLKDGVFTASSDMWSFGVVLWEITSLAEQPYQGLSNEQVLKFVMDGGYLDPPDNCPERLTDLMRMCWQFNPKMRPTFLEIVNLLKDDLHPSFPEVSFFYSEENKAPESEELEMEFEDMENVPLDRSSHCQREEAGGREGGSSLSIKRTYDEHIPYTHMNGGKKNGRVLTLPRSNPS

For “Gpc4Δ529SAG531::HHHHHH (ΔGpc4), soluble mutant lacking the GPI anchor attachment site, with N-terminal 6xHis tag (from UniProt P51655 19-528; P51655 532-557)”, the insulin-stimulated Akt-Ser473 peak phosphorylation, enhancement by overexpression was 94% and the insulin-stimulated ERK peak phosphorylation, enhancement by overexpression was 67%.

For “native Gpc4 with HA-tag inserted after the signal peptide, stably overexpressed in 3T3-L1 cells (from UniProt P51655 19-529)”, the insulin-stimulated Akt-Ser473 peak phosphorylation, enhancement by overexpression was 140% and the insulin-stimulated ERK peak phosphorylation, enhancement by overexpression was 100%.
